Measured values reported in patent US10400249B2, “HPPD variants and methods of use” (priority 2014, dated 2019).

Experiments:
[1] = test system: soybean shoots; test: soybean transformation, greening or bleaching of shoots on isoxaflutole or tembotrione selection; format: in vivo; settings: selection amount of herbicide
Source text: Soybean transformation is achieved using methods well known in the art, such as the one described using the Agrobacterium tumefaciens mediated transformation soybean half-seed explants using essentially the method described by Paz et al. (2006), Plant cell Rep. 25:206. Transformants were identified using tembotrione or isoxaflutole as selection marker. The appearance of green shoots was observed, and documented as an indicator of tolerance to the herbicide isoxaflutole or tembotrione.

[2] = test system: maize T0 events; test: greenhouse spray test of maize T0 events for tolerance to Cmpd. 4; format: in vivo; settings: 25 g AI/ha
[3] = test system: Pseudomonas fluorescens HPPD protein; test: brown color assay: HPPD extracts spotted on solid media containing tyrosine and an HPPD inhibitor; format: biochemical; settings: TBT, DKN and mesotrione 500-2000 uM, compared with PfHPPD and PfEvo33
Experimental: A specific, although non-limiting, type of assay that can be used to evaluate the HPPD sequences of the invention is a colorimetric assay. In this assay, a YT-broth-type culture medium with 1% agarose, 5 mM L-Tyrosine and 42 mM Succinate, which contains the selection agent for the vector pSE420 (Invitrogen, Karlsruhe, Germany) or a modified version of pSE420 (pSE420(RI)NX) is poured into deep well plates. E. coli culture in the exponential growth phase which contains the vector pSE420-HPPDx (HPPDx means any gene coding for a putative HPPD enzyme/protein) is applied to each well.
The HPPD PfEvo33 mutant (described in International Patent Application No PCT/US2013/59598 (filed on Sep. 13, 2013) and set forth herein as SEQ ID NO:5) was mutagenized at positions 334 and 336. Saturated mutagenesis of these positions was carried out using the QUIKCHANGE® lightning kit. Mutants were pooled and transformed into DH5alpha E. coli cells. Six hundred individual clones were screened for tolerance to the HPPD inhibitor tembotrione (TBT). The clones were grown in LB media plus kanamycin at 37 degrees C. in a shaker until an OD600 nm of 0.3 was reached. Cultures were then switched to 30 degrees C. and incubated for an additional 17 hours. Cultures were spun down and cell pellets resuspended in 10 mM Hepes/KOH pH 7.6, 4 mM MgCl2, 1 mM DTT. […]
The mutants were analyzed using a brown color assay. […]

[4] = test system: Pseudomonas fluorescens HPPD protein; test: HGD assay: HPPD activity coupled to HGA dioxygenase, pI50 and type of inhibition (time-course); format: biochemical
Outline: (§1)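 pI50 values for Pseudomonas fluorescens HPPD come from two room-temperature formats. The coupled HGD assay continuously follows maleylacetoacetate at 318 nm (pH 7.6 Tris, 600 μM HPP, FeSO4, ascorbate, catalase, inhibitor up to 100 μM) and classifies inhibition type from time-dependence. The endpoint OD assay measures unconsumed 0.5 mM HPP after 24 min via DNP hydrazone at 405 nm (pH 7.8), testing 5.0×10^−6–5.0×10^−4 M inhibitor.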

[5] = test system: Pseudomonas fluorescens HPPD protein; test: OD assay: HPPD activity and pI50 from HPP remaining after derivatisation with DNP; format: biochemical
Outline: as §1

[6] = test system: T0 soybean plants; test: greenhouse spray test of T0 soybean plants for tolerance to mesotrione; format: in vivo; settings: mesotrione 3X field rate, 316 grams AI per hectare, seven days after treatment
Experimental: T0 soybean plants expressing an HPPD inhibitor tolerant enzyme of the present invention, along with a gene conferring tolerance to glyphosate and a gene conferring tolerance to glufosinate or having a “plant expression cassette”, which includes only an HPPD inhibitor tolerant enzyme of the present invention, were tested for tolerance to mesotrione. Prior greenhouse trials with the transgenic plants, soy transformants were routinely analyzed for the expression and presence of the transgenes using the ELISA protein detection method (see detailed description under item D and H). Only plants recovering in the selection media and having a detectable HPPD transgene protein expression were used for the herbicide tolerance analysis. A DeVries Tracker Sprayer was calibrated prior to each spraying. The chemical formulation used for mesotrione (MST) testing was Callisto® 4 SC formulation supplemented with ammonium sulfate and methylated rape seed oil (Actirob). Spray tests were conducted using 3× the field rate (equivalent to 9 fluid ounce per acre of the same herbicide formulation that containing 40% the active ingredient (AI), mesotrione), which equals 316 grams AI per hectare. Tolerance was evaluated one week after spraying. […] A tolerance rating of “0” was assigned to plants that their shoot apexes, newly emerged trifoliates and some axillary buds were completely bleached. A rating of “1” was assigned to plants having slight tolerance, i.e., the newest plant shoot tissues had some green leaves and are not bleached completely. A rating of “2” was assigned to plants showing moderate tolerance, i.e., more than 50% of the leaf area of the top three trifoliates showing no chlorosis or bleaching damage. A rating of “3” was assigned to plants showing nearly perfect tolerance, i.e., less than 10% of the leaf area showing chlorosis or very slight bleaching.

[7] = HT-single plant expression cassette
[8] = HT-triple plant expression cassette

Molecule: CS(=O)(=O)c1cc(C(F)(F)F)ccc1C(=O)c1cnoc1C1CC1 [isoxaflutole, (5-cyclopropyl-4-isoxazolyl)[2-(methylsulfonyl)-4-(trifluoromethyl)phenyl]methanone]
- appearance of wild-type soybean shoots treated with the herbicide [1]: entirely bleached

Molecule: CS(=O)(=O)c1ccc(C(=O)C2C(=O)CCCC2=O)c(Cl)c1COCC(F)(F)F [tembotrione, 2-[2-chloro-4-(methylsulfonyl)-3-[(2,2,2,-trifluoroethoxy)methyl]benzoyl]-1,3-cyclo-hexanedione]
- appearance of wild-type soybean shoots treated with the herbicide [1]: entirely bleached

Molecule: CSc1c(C(F)(F)F)ccc(C(=O)Nc2nnnn2C)c1Cl [Cmpd. 4, 2-chloro-3-(methylsulfanyl)-N-(1-methyl-1H-tetrazol-5-yl)-4-(trifluoromethyl)benzamide]
- leaf damage of control maize T0 events expressing EPSPS only, no HPPD variant [2]: 100%
- leaf damage of non-transformed maize plants [2]: 100%

B1: PfEvo44: PfHPPD variant E335P, G336Y (protein)
chain: MADLYENPMGLMGFEFIEFASPTPGTLEPIFEIMGFTKVATHRSKNVHLYRQGEINLILNNEPNSIASYFAAEHGPSVCGMAFRVKDSQKAYNRALELGAQPIHIDTGPMELNLPAIKGIGGAPLYLIDRFGEGSSIYDIDFVYLEGVERNPVGAGLKVIDHLTHNVYRGRMVYWANFYEKLFNFREARYFDIKGEYTGLTSKAMSAPDGMIRIPLNEESSKGAGQIEEFLMQFNGEGIQHVAFLTDDLVKTWDALKKIGMRFMTAPPDTYYEMLEGRLPDHGEPVDQLQARGILLDGSSVEGDKRLLLQIFSETLMGPVFFEFIQRKGDDGFGPYNFKALFESIERDQVRRGVLTAD
modifications: HPPD variant - PfEvo44
notes: PfHPPD variant E335P, G336Y
- brown color formation in presence of HPPD inhibitors [3]: darkest color
- mechanism of inhibition by diketonitrile (DKN), time-course of inhibition [4]: fully reversible inhibition
- mechanism of inhibition by mesotrione (MST), time-course of inhibition [4]: fully reversible inhibition
- mechanism of inhibition by tembotrione (TBT), time-course of inhibition [4]: fully reversible inhibition
- tolerance (pI50) DKN ([4]; inhibitor diketonitrile (DKN), HGD assay): 4.1
- tolerance (pI50) MST ([4]; inhibitor mesotrione (MST), HGD assay): 5.2
- tolerance (pI50) TBT ([4]; inhibitor tembotrione (TBT), HGD assay): 5.9
- Activity DeltaE/24 min μg Protein ([5]; HPPD enzyme activity of the clone): 0.41 DeltaE/24 min μg Protein
- tolerance (pI50) DKN ([5]; inhibitor diketonitrile (DKN), negative log of molar concentration): 4.0
- tolerance (pI50) MST ([5]; inhibitor mesotrione (MST)): 4.6
- tolerance (pI50) TBT ([5]; inhibitor tembotrione (TBT)): >5.6
- Number of T0 soybean plants with herbicide tolerance rating 0 (completely bleached) [6, 7]: 7
- Number of T0 soybean plants with herbicide tolerance rating 1 (slight tolerance) [6, 7]: 14
- Number of T0 soybean plants with herbicide tolerance rating 2 (moderate tolerance) [6, 7]: 43
- Number of T0 soybean plants with herbicide tolerance rating 3 (nearly perfect tolerance) [6, 7]: 21
- Number of T0 soybean plants with herbicide tolerance rating 0 (completely bleached) [6, 8]: 4
- Number of T0 soybean plants with herbicide tolerance rating 1 (slight tolerance) [6, 8]: 22
- Number of T0 soybean plants with herbicide tolerance rating 2 (moderate tolerance) [6, 8]: 19
- Number of T0 soybean plants with herbicide tolerance rating 3 (nearly perfect tolerance) [6, 8]: 26
